According to patent US7585967 (VASGENE THERAPEUTICS, dated 2009):

Columns and labels:
[1] = molecular target: T1, Mouse EphB4/Fc (R & D Systems) (mouse, UniProt P54761 16-539); assay: immunofluorescence on frozen KS sections, FITC-labeled anti-human Fc antibody
T1 construct: Bought; also called EphB4/Fc fusion protein; not shown: Fc; detected with anti-human Fc / anti-human IgG-FITC
T1 sequence (looked up): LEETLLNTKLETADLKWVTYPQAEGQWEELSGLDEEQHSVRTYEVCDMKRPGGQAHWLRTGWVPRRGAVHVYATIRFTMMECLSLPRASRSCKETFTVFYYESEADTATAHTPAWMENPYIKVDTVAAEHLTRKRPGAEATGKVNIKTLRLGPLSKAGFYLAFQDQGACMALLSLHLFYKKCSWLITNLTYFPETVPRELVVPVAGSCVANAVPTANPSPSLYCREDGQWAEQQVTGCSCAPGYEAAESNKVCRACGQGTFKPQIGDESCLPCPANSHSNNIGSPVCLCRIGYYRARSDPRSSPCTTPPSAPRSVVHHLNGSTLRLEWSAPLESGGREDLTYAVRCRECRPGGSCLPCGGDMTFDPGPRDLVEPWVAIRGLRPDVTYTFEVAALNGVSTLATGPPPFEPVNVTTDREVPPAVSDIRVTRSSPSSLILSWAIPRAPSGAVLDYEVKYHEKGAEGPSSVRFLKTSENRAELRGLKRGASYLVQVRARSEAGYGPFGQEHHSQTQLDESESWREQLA
From the text: (A) In situ hybridization with antisense probes for ephrin B2 and EphB4 with corresponding H&E stained section to show tumor architecture. Dark blue color in the ISH indicates positive reaction for ephrin B2. No signal for EphB4 was detected in the Kaposi's sarcoma biopsy. For contrast, ISH signal for EphB4 is strong in squamous cell carcinoma tumor cells. Ephrin B2 was also detected in KS using EphB4-AP fusion protein (bottom left). (B) Detection of ephrin B2 with EphB4/Fc fusion protein. Adjacent sections were stained with H&E (left) to show tumor architecture, black rectangle indicates the area shown in the EphB4/Fc treated section (middle) detected with FITC-labeled anti-human Fc antibody as described in the methods section. As a control an adjacent section was treated with human Fc fragment (right). Specific signal arising from EphB4/Fc binding to the section is seen only in areas of tumor cells. (C) Co-expression of ephrin B2 and the HHV8 latency protein LANA1. […] Coexpression is seen as yellow color.
Immunofluorescence detection of EphrinB2 with EPHB4-Fc was done as follows. Frozen sections fixed in 4% paraformaldehyde and blocked with 20% FBS were incubated with 5 μg/ml EphB4/Fc (R&D Systems) for 1 h at RT. Sections were then incubated with 10 μg/ml rabbit anti-human IgG-FITC in PBS (Jackson ImmunoResearch Laboratories West Grove, Pa.) at RT for 1 hour. […]

[2] = molecular target: T2, B4-GCF1 protein (globular, Cys-rich and first FNIII domain of human EphB4, C-terminally 6xHis tagged) (human, UniProt P54760 16-427); assay: Ephrin B2-AP on B4 proteins immobilized on Ni2+-resin or on nitrocellulose membrane
T2 construct: Range is numbered on mature EphB4
T2 sequence: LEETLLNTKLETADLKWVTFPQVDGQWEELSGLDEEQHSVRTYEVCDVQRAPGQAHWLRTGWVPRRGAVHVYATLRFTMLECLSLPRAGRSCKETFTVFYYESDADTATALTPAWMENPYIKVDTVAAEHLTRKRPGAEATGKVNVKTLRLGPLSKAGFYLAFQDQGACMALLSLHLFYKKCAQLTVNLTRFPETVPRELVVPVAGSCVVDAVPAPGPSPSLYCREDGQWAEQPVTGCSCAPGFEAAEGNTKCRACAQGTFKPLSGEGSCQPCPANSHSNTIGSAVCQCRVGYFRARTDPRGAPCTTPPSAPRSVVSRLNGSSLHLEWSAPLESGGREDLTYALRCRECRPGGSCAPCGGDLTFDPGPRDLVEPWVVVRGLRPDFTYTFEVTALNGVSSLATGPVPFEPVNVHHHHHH
Experimental: (§1) To confirm ability of the purified recombinant proteins to bind Ephrin B2, they were tested in an in vitro binding assay. As expected, GC, GCF1 and GCF2, but not CF2 are binding the cognate ligand Ephrin B2 as confirmed by interaction between Ephrin B2-alkaline phosphatase (Ephrin B2-AP) fusion protein with the B4 proteins immobilized on Ni^2+-resin or on nitrocellulose membrane (FIG. 17).
(§2) To test ligand binding properties of the proteins, 10 µl of Ni-NTA-Agarose (Qiagen) were incubated in microcentrifuge tubes with 10-500 ng sample of a B4-ECD protein diluted in 0.5 ml of binding buffer BB (20 mM Tris-HCl, 0.15 M NaCl, 0.1% bovine serum albumin, pH 8). After incubation for 30 min on shaking platform, Ni-NTA beads were washed twice with 1.4 ml of BB, followed by addition of B2-AP fusion protein at concentration of 50 nM. Binding was performed for 30 min on a shaking platform. Tubes were centrifuged and washed once with 1.4 ml of BB. Amount of precipitated AP was measured colorimetrically at 420 nm after application of p-nitrophenyl phosphate (PNPP) and incubation for 5-30 min.

[3] = molecular target: T3, B4-GCF2 protein (complete extracellular part of human EphB4, C-terminally 6xHis tagged) (human, UniProt P54760 16-537); assay: as above
T3 construct: Range 1-522 is numbered on mature EphB4 (after leader removal)
T3 sequence: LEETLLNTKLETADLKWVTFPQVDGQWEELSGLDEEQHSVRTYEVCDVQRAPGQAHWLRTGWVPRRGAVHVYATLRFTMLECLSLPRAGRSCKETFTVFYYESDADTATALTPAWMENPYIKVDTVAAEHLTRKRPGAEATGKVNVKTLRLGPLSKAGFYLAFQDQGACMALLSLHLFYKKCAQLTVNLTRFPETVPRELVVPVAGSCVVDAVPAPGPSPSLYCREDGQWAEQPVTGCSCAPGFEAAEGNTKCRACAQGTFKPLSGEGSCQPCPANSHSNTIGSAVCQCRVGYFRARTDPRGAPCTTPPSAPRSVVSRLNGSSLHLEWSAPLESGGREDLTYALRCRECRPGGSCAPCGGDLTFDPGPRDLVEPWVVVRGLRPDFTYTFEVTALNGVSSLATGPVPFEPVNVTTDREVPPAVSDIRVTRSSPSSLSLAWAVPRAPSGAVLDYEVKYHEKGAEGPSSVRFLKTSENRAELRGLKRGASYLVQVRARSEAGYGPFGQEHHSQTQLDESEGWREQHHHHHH
Experimental: as §1, §2

[4] = molecular target: T4, B4-GC protein (globular domain and Cys-rich domain of human EphB4, C-terminally 6xHis tagged) (human, UniProt P54760 16-327); assay: as above
T4 construct: Range is numbered on mature EphB4
T4 sequence: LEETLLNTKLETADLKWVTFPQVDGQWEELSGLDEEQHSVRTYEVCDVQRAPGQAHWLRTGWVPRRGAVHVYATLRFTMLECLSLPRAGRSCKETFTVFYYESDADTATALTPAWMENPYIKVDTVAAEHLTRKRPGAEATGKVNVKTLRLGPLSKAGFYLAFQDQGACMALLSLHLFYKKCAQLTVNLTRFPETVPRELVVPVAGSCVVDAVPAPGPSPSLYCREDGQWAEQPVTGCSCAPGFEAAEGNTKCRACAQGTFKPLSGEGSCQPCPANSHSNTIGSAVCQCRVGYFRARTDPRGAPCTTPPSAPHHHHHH
Experimental: as §1, §2

[5] = molecular target: T5, B4ECv3NT protein (soluble extracellular domain of human EphB4 without epitope or purification tags) (human, UniProt P54760 16-537); assay: biochemical assays with B2EC-AP reagent
T5 construct: also called EphB4ECnt; B4EC-NT
T5 sequence: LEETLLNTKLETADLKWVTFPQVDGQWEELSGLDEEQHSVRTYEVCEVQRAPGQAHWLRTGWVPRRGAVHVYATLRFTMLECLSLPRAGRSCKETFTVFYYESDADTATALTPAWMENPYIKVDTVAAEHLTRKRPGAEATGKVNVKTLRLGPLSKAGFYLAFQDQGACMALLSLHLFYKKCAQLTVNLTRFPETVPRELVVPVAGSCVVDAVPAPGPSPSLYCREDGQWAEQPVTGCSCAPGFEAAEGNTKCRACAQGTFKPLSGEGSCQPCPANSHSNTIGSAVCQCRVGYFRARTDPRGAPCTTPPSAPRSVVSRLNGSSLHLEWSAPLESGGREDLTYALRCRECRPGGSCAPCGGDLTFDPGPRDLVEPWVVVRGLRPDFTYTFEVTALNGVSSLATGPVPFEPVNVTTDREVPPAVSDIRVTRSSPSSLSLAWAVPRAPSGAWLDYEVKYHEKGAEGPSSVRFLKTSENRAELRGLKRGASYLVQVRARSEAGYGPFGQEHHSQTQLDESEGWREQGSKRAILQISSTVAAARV

[6] = molecular target: T6, B4ECv3 protein (soluble extracellular domain of human EphB4 with V5 epitope tag and 6xHis tag on its … (human, UniProt P54760 16-537)); assay: B4ECv3 on Ni-NTA-agarose, B2-AP at 50 nM, PNPP colour
T6 construct: also called EphB4ECv3; hB4ECv3
T6 sequence: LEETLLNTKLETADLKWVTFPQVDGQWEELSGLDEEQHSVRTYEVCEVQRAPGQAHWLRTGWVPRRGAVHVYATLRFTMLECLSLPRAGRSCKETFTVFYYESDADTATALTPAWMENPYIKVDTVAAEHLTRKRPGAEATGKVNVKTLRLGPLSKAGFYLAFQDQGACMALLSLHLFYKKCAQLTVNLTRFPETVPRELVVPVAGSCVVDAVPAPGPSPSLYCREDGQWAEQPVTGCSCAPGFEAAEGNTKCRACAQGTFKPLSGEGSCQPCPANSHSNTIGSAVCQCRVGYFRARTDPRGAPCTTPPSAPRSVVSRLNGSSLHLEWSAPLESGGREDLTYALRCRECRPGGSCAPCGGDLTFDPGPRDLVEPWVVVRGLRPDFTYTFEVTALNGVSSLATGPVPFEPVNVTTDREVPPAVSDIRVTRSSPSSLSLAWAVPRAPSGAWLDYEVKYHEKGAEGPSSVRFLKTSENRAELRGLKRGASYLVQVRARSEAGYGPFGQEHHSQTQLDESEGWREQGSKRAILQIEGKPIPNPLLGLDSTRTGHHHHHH
Experimental: 10 µl of Ni-NTA-Agarose were incubated in microcentrifuge tubes with 50 µl of indicated amount of B4ECv3 diluted in binding buffer BB (20 mM Tris-HCl, 0.15 M NaCl, 0.1% bovine serum albumin pH 8) After incubation for 30 min on shaking platform, Ni-NTA beads were washed twice with 1.4 ml of BB, followed by application of 50 µl of B2-AP in the final concentration of 50 nM. Binding was performed for 30 min on shaking platform, and then tubes were centrifuged and washed one time with 1.4 ml of BB. Amount of precipitated AP was measured […] after application of PNPP.

Measured: binding result

B1: ephrin B2 on tumor cells of human Kaposi's sarcoma biopsy sections (ligand)
chain: IVLEPIYWNSSNSKFLPGQGLVLYPQIGDKLDIICPKVDSKTVGQYEYYKVYMVDKDQADRCTIKKENTPLLNCAKPDQDIKFTIKFQEFSPNLWGLEFQKNKDYYIISTSNGSLEGLDNQEGGVCQTRAMKILMKVGQDASSAGSTRNKDPTRRPELEAGTNGRSSTTSPFVKPNPGSSTDGNSAGHSGNNILGSEVALFAGIASGCIIFIVIIITLVVLLLKYRRRHRKHSPQHTTTLSLSTLATPKRSGNNNGSEPSDIIIPLRTADSVFCPHYEKVSGDYGHPVYIVQEMPPQSPANIYYKV
binds: [1]

B2: Ephrin B2-alkaline phosphatase (Ephrin B2-AP) fusion protein (protein fusion of Ephrin B2 ectodomain with placental alkaline phosphatase) (ligand)
chain: IVLEPIYWNSSNSKFLPGQGLVLYPQIGDKLDIICPKVDSKTVGQYEYYKVYMVDKDQADRCTIKKENTPLLNCAKPDQDIKFTIKFQEFSPNLWGLEFQKNKDYYIISTSNGSLEGLDNQEGGVCQTRAMKILMKVGQDASSAGSTRNKDPTRRPELEAGTNGRSSTTSPFVKPNPGSSTDGNSAGHSGNNILGSEVALFA
notes: also called B2EC-AP; B2ECAP; not shown: placental alkaline phosphatase from the pAPTag2 vector (GenHunter)
not listed: [1]
binds: all other assays above
